Data set [1] has as its target Glu92 (UniProt position 93, EAFRVEDKDGN). Briefly: kinetics. The conditions noted are these: Ca2+-bound (active) protein, the protein is inactive without Ca2+.
Data set [2] has as its target Glu92 (UniProt position 93, EQFRVEDKDGN). The experiment in a line: kinetics. Particulars: Ca2+-bound (active) protein; the protein is inactive without Ca2+.
For data set [3], the target named is AlleyCat; AlleyCat7 (Gallus gallus, UniProt P62149, A129T/A89Q/F93E/H108I/I86L/L113R/M125L/M145R). The experiment in a line: inhibition of Kemp elimination. It is filed as biochemical.

With “CaM F92E (full-length calmodulin F92E) (Gallus gallus; F92E)”, in data set [1], the pKa (commonly the negative logarithm of the acid dissociation constant) amounted to 6.98±0.05.

As for “AlleyCat (calmodulin C-terminal domain F92E) (Gallus gallus; F92E)”, the pKa in data set [1] (cited from earlier work) is reported as 6.9±0.1.

As to “CaM F92E round 1 variant (F92E/M144R) (Gallus gallus; F92E;M144R)”, the pKa in data set [1] is reported as 7.21±0.06.

In turn, “CaM F92E round 3 variant (F92E/M144R/H107I/L112R) (Gallus gallus; F92E;M144R;H107I;L112R)” registered a pKa in data set [1] of 6.70±0.03.

“CaM F92E round 7 variant, tag removed (Gallus gallus; F92E;M144R;H107I;L112R;I85L;A128T;M124L;A88Q)”: the pKa in data set [2] amounted to 6.43±0.02.

Regarding `O=[N+]([O-])c1ccc2[nH]nnc2c1` [5-NBT, 5-nitro-benzotriazole], affinity in data set [3] was put at a Ki of 18 µM.

In data set [2], “AlleyCat7 (calmodulin C-terminal domain with round 7 mutations) (Gallus gallus; F92E;M144R;H107I;L112R;I85L;A128T;M124L;A88Q)” returned a pKa of 6.39±0.02.

In data set [1], “CaM F92E 5R (round 5 variant), with affinity tag (Gallus gallus; F92E;M144R;H107I;L112R;I85L;A128T)” had a pKa of 6.60±0.02.

Compound “CaM F92E round 6 variant (Gallus gallus; F92E;M144R;H107I;L112R;I85L;A128T;M124L)” had a pKa in data set [1] of 6.67±0.01.

On to “CaM F92E round 2 variant (F92E/M144R/H107I), tag removed (Gallus gallus; F92E;M144R;H107I)”, for which the pKa in data set [1] is recorded as 6.73±0.03.

With “CaM F92E 5R (round 5 variant), affinity tag removed (Gallus gallus; F92E;M144R;H107I;L112R;I85L;A128T)”, the pKa in data set [1] is 6.47±0.03.

The compound “CaM F92E round 4 variant (F92E/M144R/H107I/L112R/I85L) (Gallus gallus; F92E;M144R;H107I;L112R;I85L)” registered a pKa in data set [1] of 6.93±0.03.

The record behind these values is article PMC3817844 (Angewandte Chemie (International ed. in English), 2013).
